Results taken from patent US20090239800A1 (GEORGIA TECH RESEARCH CORPORARION, published 2009).
No end group written: not given here.

Assays:
rabbit ClC-2 [1] = target: T1, rabbit ClC-2 (rabbit, UniProt P51789 1-898); assay: dose-response of inhibition of ClC-2 window current, inside-out multi-channel patches, synthetic toxin backfilled in the pipette, VM=-100 mV (FIG. 3B)
T1 construct: whole, on cells; Voltage-gated chloride channel recorded in whole oocytes (TEVC) or in excised inside-out patches; also called ClC-2 channel
T1 sequence (looked up): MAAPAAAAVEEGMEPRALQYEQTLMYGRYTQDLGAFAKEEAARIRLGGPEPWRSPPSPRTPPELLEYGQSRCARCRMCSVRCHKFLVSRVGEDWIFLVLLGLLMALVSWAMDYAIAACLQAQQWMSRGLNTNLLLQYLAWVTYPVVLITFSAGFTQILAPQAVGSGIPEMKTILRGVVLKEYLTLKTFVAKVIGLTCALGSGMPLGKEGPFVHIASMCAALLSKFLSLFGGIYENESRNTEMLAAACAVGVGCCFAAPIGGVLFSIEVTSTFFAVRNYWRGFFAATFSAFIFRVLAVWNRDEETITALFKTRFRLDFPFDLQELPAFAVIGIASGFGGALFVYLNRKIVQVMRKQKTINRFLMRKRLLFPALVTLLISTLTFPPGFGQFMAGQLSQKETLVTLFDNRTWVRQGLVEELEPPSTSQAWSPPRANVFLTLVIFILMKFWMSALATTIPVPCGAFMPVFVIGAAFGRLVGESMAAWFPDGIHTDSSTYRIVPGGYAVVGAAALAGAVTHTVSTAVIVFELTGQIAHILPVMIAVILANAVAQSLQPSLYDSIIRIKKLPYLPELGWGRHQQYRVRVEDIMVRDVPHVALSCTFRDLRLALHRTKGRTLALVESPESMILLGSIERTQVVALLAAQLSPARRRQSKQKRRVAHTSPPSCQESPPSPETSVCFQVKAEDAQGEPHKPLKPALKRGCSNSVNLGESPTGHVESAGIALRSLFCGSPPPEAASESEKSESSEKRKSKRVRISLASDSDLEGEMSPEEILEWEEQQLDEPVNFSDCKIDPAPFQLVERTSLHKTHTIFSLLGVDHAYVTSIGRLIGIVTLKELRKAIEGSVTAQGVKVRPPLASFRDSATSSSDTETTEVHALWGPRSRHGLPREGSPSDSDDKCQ

rabbit ClC-2 [2] = target: T1, rabbit ClC-2; assay: cell-based or functional assay
ClC-1 = assay: cell-based or functional assay

## VSCEDCPDHCSTQKARAKCDNDKCVCEPI (disulfide (positions not given here), also called Leiuropeptide II; LPII) [GaTx2]
Rabbit ClC-2 [1]
  Kd: 0.012 nM
Rabbit ClC-2 [2]
  latency to first opening upon stepping from VM 0 to -100 mV, 20 pM GaTx2: 7.67 fold increase
ClC-1
  ClC-1 tail currents at VM=-120 mV from +60 mV, 10 nM GaTx2 against after washout of toxin: 1.04 fold
